Assay results taken from a protein production outcome set (Wang et al. 2014).

Assay: label from the status in PepcDB records

| Sequence | protein production |
| --- | --- |
| MDRDSSMQAKNLDAQCNPDLKMASANSETLASATHELKIMDVEGGALVDPDHIEEVETSMVIVVDDDDGDVAMVVEEDKHPMRDDPCIEDIMDDEHAPLVAELQSALNNPDDKQASEDPLLEDQEREPDAMSTKTEPSSDAESSHSYHDPMGLLERIEIHDPGDSQDDDDEDDESSNGGGVDGGMRRKMPRAQRWLLWMKRWPWILHEDSDGTLAFCLYCNISINVNNRSRHIQQHNVSLSHQERECNYLAFKKSEEETRGAISDNEIKHEFGTKSYVAAMKQKRISETEAFNNFNWLRWLRWHPWLERSMPTGTIGTCRICSVRMNVEFVYLRKRHETTKGHMEALRNLDSDKRSRKRKRSKSNSVTNSGGDEAEREKESEPEVGPEDAQDTPVVMMNGDVDSGDDPGKWCALIPDTNPQQCRCTLCNCTMAITSFLRHCKTRAHCHMLSTPAEKGSSDIRGIWAVFADMHPWLIADPEDPSIGYCSVCRKRFMYGNSEIKRKNHEKSEKHTLALASAKAGIEVGSADGRGGDNMDEEEAAASDQAQSSQTDDSEDNDDDNWSEIQKLGKGFAHKSSSEPRKATVRAGVRFYPWLCYSKDRKTQICKFCRVRFHNEAAKARHELSARHVKLVKQFKMRQAKLHQGTNTQTKHNAQDDEESQEQDEEYGEEEEDAEEDSQSNFDLGTVQARKTARADNKLFVKPIPATMKGKVMVWKGRFPWLSYKKNEQRGNYAWCKLCEVSLYLPSSKWASKHQRTSRHIRLRIDRKRNGGNPLKTSNKNSGEISTVVATASALASAEARQKAAMAELQAKYDWLDPDANDENHCHCRVCDSRLPIKVFYLRQHDASRKHVENKERQRANAAAAANAPSVSPTSTVDAERQESGMDKESENDMSVRSDGSTAEPLAKRSRRSMEVRRIIRALRDSMGKRQEERSQMDMARDMICSSFDIVTRLRTLERESVAHNESMAQAPPSVTVSPIKPPEPRHVMDLFFDSISPTMKSLPPDLAAEGKSKIMQLVCSLELRAMQRNATTPTPATVSASSKWPSSTTVTPVKTPPAPISAPLASVDADLHSSVVTTPHEYNNGQNNNNDKETVPKEPVTGASSAQVTINGSAKDLPENIRRILTSNQTQVTNRLETDSVRCVPLDKLTTQSRTNVNGRLSQGGTSEAPSTPQADLSNGNTLAMIRQIRVNNNNSSKITVTNTPQMQQPQQAQASITSSTPIMRGGPSSNGCQITTFRTMVNHNRRP | failed |
| MRITSTANPRIKELARLLERKHRDSQRRFLIEGAREIERALQAGIELEQALVWEGGLNPEEQQVYAALGRVGRLALLEVSEAVLKKLSVRDNPAGLIALARMPERTLEEYRPSPDALILVAVGLEKPGNLGAVLRSADAAGAEAVLVAGGVDLYSPQVIRNSTGVVFSLRTLAASESEVLDWIKQHNLPLVATTPHAEALYWEANLRPPVAIAVGPEHEGLRAAWLEAAQTQVRIPMQGQADSLNVSVSAALLLYEALRQRLLRDRLTKTHSTL | not failed |
| MSSTSKIHAKITGPIVMIGFGSIGKGALPLIERHFEYDKKRFVIIDPHEDGELAKKHGVRFIKQAVTKDNYRELLVPLLTEGGGQGFCVNLSVDTGSVDLMTMCREIGALYIDTVVEPWLGFYFDKNAGPEKRSNYALRETLLAAKAKNPGGTTAVSTCGANPGMVSWFVKQALLDIARDTGLEFNEPKSREGWGQLAQKLGVKGIHIAERDTQRAKTPKPMNVFVNTWSVEGFVSEGLQPAELGWGTHEKWIPDNGRKHTEGCQAAIYLLQPGANTRVRTWCPTPGPQYGFLVTHNESISIADYFTVRDGQNVVYRPTCHYAYHPANDAVLSLHEMFGAEGKMQPKWHILDENEIVDGIDELGVLVYGHAKNAYWYGSQLSIEETREICPYQNATGMQVSSAVLAGMVWALENPEAGIVEADEMDFRRCLEVQKPYLGPVKGYYTDWTPLTDRPGLFPEDIDSSDPWQFKNVLVR | failed |
| MRSFLLGGVRPRDFWSMLKNLALRVDGEGAMDIGAWLRDQGLGQYEGTFRQNDIDPEVLRHLTAEDLIGVGVASVGHRRKLLAAIAALREVAEQPSGAAGFGATPVINPEAERRQLTVMFVDLVESTRLSSRLDPEEMGELLRGYQRAVAGAIARFEGHVAKYMGDGVLAYFGYPRAHEDEAERAVRAGLAAIDAVRKLQPPHGETLEARVGIATGLVVVGELIGEGAAREETVIGETPNLAARLQSVAEPGAVVVASATRQLIGGLFDLAELGFHPLKGFAASIPAWRVLGESSAESRFEAFHGASLTPLVGREHDIGLLLKRWEAVKKGKGRVVLLAGEPGIGKSRLVRALRRRLEGEPHTTVSHYCSPYHQTSPLYPVIRLLERAAGFAAEDPPEVKLSKLEALLTQSIEEVADAAPLLAALLSVPADDRYQPLELSPHRQKKRMLEVLVDQLIGLAARQPILAVYEDVHWADPTSLELLDLVVDRVQDSPVLVLITFRTEFLPPWTRYPHVTVLTLSRLSRRQGAEMVDRLTGRRALPTEVLDQIVAKTDGVPLFVEELTRAILETSLLKAEGDHYALARPLSAISIPATLHESLLARLDRLAPAREVMQVAAAIGREFSHELLVTAAPLQASEVEEALEDLIASGLVFRHGTPPQLTYSFKHALVRDAAYATLVRTKRQRLHAAIATAIEQRFPEMVQTQPELLAQHYAEAGRLEPAVNYWLRAGQAEIARSATTEAISHLTRGLELLEGLPDDAARLRKELELQVALSVALMTAKGWAAPEVGRANARARNLCERLGDKSRLFPVLYGDWVFHVVRAELEAGRKAGEELLRRAQEEREVSAEIVGNRIAGTGAFLRGEIANAREYLERSLALYDPQQHRALAFLFAQDPRVAGLSVLSLTLFALGYPEQAQARSNEALADARELSHSNTLGFALLYGCILSQLRGDWREARDRAGSLITLARAQGSPHFLGAGKILQGWTLGQTGELPAASTKVQEGLASWQMTGARFLVPYFLSLLARVETQSAGAKRALDLLTDALQRARETGERWFEAELHRLTGELMLQLPAFDRAEGEARLQHAVELARGQGADLWELRAATSLARLRIGQNRFGDVHHLLAPLCGKFAEGFATTDLQSAQRLLREAAGFDGAIKSSD | failed |
| MLKRTLLACLALSCSFPSYSADYITENLSTYMRKGAGDQYKIAGTIQAGEKITVLDRKDRFVLIRDSRNREGWVLNNEISQTASPKELIPELQQQIQDLSSKLNKIDNDWQQRTAEMQRRSQQAEQQSSELLDENTQLKRKLEVLKNKNRDLETMQDAEKREIVIQWFIYGGSVLTVGLLLGLLIPFILPRRRRNNGWSLEHHHHHH | failed |
| MDEYAGRVLADRYRLPLPPSDEYELAETRAFDTYSGQEVLVRQVPLPEVVEAEVLDADGLPAGFVARDGGTRRASARTATRRPAEPAVRRAIEAAQAAAQIPDHPRLDQVFDVFAEGGSLWIVSELVAARPLAALLADKPLSPYRAAEVASDVLMALRVLHAHGWVHRNITVRTVLVCDDGRVMLTGLAAGAAEEALCGYDPVPVRDFEPRGDDGGDGTGGNGRGAVRGAAAGGTPGIGSGPGAGSGRPGIGAGSGGPVGAAGGAVGAAAGGMSVAEAEAARRAAIEARAGGVGPVAGTPGGEVPARGARALEGGGDARAQRAGAIAAYRAGARAAARVQEAQRGGRAALPAPRPADAEGRAPQSPGHGVEHLPGALPGQIADPYGVARTNSWPGGFPGDVGGANVGGAYGTPGNGSGTYENGSVPHAPADAPVSTPTPADAVPPTHWDHLVSGSSAPSGPSAASVPRRGPTTALAAERARQARMAVIGPVTERWAPEQAGPVHENWQLAAPIGPATDLWALGALLFRAVQGHAPYPEENTAELVQLVCAEPPAFAEECGPLRPVVESLLRQDPTERLDFEEVRGWLRSLVRSAPEPEAGAHVVAAPPVDPRRLPIVRRRGELVRRRRARLPATTPHARHKRAKDGRPPRPKRLGRNLVLLILLVLAAAVAYAMVFMPKASPNSDSGSRSDGDRTGAAGGVSPAPEQSGGGSEPRPDQTSPGSGKSPSGSSGSTREQTTDPDVAQGFTLRKDPEGFRVAVATGWDRAPKNGRGRIVYSHGDFELIVVPGRDSTADHGSDPLTYQRETESELQPFRDSTWATSSGMRRIDVGGRTMAEGQFTWTDGQGRELFVRNLAIVVGGRYHVVQLRGPEAERDEVTRLYEQASRTYQVTG | failed |
| MLKGFNSGDISYEILEKKKENIEQQALERFLEEKSEKENKHIPKEDMLFNSKDSIAMERIVGKNDLFPISYLQIGLNISKSVCRISIRDSRGVVVGYGTGFLVAPNIILTNNHVINSYEVASNSIAEFNYQDDENFMPCPTYNFRLNPQTFFITNVKLDFTLVALNENVTNQKHLEDFGYLKMTQKEGTILPEEYVSIIQHPKGGPKSVTLRENKVSGLKENFIHYLTDTEPGSSGSPVFNDQWTLVALHHSGVPNPEIKDEWIANEGILISAIVNYLAKKYSSLKENEQAIIKEIVPDIELPKENNITSSVDDEPLGYNPLFLGKDYEIPLPKLSKEMEKDTAKTEDGNYVLDYIHFSIVMKKSRGLAYFTAVNIDGTDAVKIRRTADNWKFDPRISQNYQYGDEVYVNNDLDRGHLVRRTDPNWGKNALKANEDTFYFTNSTPQHKNLNQKTWVELEDYIFRNAVLNQFKVSVFTGPVFREDDMIYRQKYQIPAEFWKVVVMLKEDGNISATAYLQTQKNMIENLEFAYGEYKTYQVPVRNIEKLTGLDFGNLSKFDPMANIEATGIVITGPESIKF | failed |
| MVQDQIRYDILVQDALRGVIRKVLSEVAKAGLPGSHHFFITFLTNAPGVKISTRLKSRYPEQMTIVLQHQFRDLNVSETAFEVTLSFREVSEKLVIPFHSIQVFYDPVAAFEAAFDLPSNLNSKEGENLENIASTPVILSDTQKKEKKFPKEQISKTNKDSSNNDTKQSADVVSLDSFRKKLEHHHHHH | not failed |
| VKRAVQKTSDLIVLGLPWKTTEQDLKEYFSTFGEVLMVQVKKDLKTGHSKGFGFVRFTEYETQVKVMSQRHMIDGRWCDCKLPNSKQSQD | not failed |
| MKLLIISDGHGDLEKLKKIKPVADGVDALIFGGDFAAFKKIETGAPFLNELLKIHKNIFAVLGNCDEPEFEKKLKDASVSITGEVKNFEGLIFAGSGGGSKFTGTTPYERTDEELVKDLTDAFEKANITAAGNLVLVCHNPPHGAKVDKVAPMVHVGSKGITAFIEKHKPLLVVSGHIHESFAVDKIGETVLVNPGALMEGRYALAEITKNEKGFKVSVELKTLD | failed |
| MGHHHHHHSHMISWLTGEELHVEVLENVPLTTHNFVRKTFFTLAFCDFCRKLLFQGFRCQTCGYKFHQRCSTEVPLMCVNYDQLDLLFVSKFFEHHPIPQEEASLAETA | not failed |
| MALGPEGAADLQRQLTEWTVFTAHCWQARSPQTEVLIATSGGTSEAWQQWLGAVEVQPQAEGDLGDRLHQAFQDSWQVGCDRTVIIGSDCPQIEPHHLDEAFAVLQQADVVIGPASDGGYWLIGLSQPQPQLFQNIDWGSDRVLVQTLEAAQVADLQVAQLESLSDLDRPEDLNLWQPQPQLSVIITTLNEAANLPQTLALIGDAPVETLVVDGGSQDATVAIAQAWGAKVIHSPAGRGRQFNQGAAAAHGNILLFLHGDTRLPPRFWEHVLQTLQPPQVVAGAFQLQIDSPDWRLRWIERGVRWRSHWLQQPYGDQALFLSRDRWRAIGGFSTGPLLEDYRFVRQLRRQGTIAIASAAVMTSARRWQRRGVLQTTLLNQLILLAHHCGVSDQQLARWYRLEHHHHHH | not failed |
| AIAELTGQRLREGDGPDGPADDGAGAQADLEHSLLVAAEKKDEGPYRMEHFRWGSPPKDKRYGGFMTSEKSQTPLVTLFKNAIIKNAYKKGE | failed |
| MDNDRDTVEFWSSLFQSFADSEPKDNPYPVVRSPIMTMSTPMAIDEPVEPWKVLEYGGKEVRPMAIDEPAEPWKALEYGGKDVRPMAIDVPAEPWKVGGKEAQPANAAAEAGYKNVNTDQEKSTQKATEKVIM | not failed |
| MKMEELFKKHKIVAVLRANSVEEAKEKALAVFEGGVHLIEITFTVPDADTVIKELSFLKEKGAIIGAGTVTSVEQCRKAVESGAEFIVSPHLDEEISQFCKEKGVFYMPGVMTPTELVKAMKLGHTILKLFPGEVVGPQFVKAMKGPFPNVKFVPTGGVNLDNVCEWFKAGVLAVGVGSALVKGTPDEVREKAKAFVEKIRGCTE | not failed |
| MSSLKGKRIGFGLTGSHCTYEAVFPQIEELVNEGAEVRPVVTFNVKSTNTRFGEGAEWVKKIEDLTGYEAIDSIVKAEPLGPKLPLDCMVIAPLTGNSMSKLANAMTDSPVLMAAKATIRNNRPVVLGISTNDALGLNGTNLMRLMSTKNIFFIPFGQDDPFKKPNSMVAKMDLLPQTIEKALMHQQLQPILVENYQGND | failed |
